Source: US11912970B2, “Universal microfluidic culture system to analyze and control cell dynamics” (The University of Chicago, priority 2017, dated 2024)

Tests used:
Assay type in all cases: cell-based, mouse
NSCs [1] = test: NSCs proliferation (cell number) under combinatorial ligand inputs (permutation test and decision tree analysis); settings: combinatorial input, decision tree, without PACAP
Text: (§1) Murine hematopoietic stem cells (HSC) are isolated by FACSAria III flow cytometer (BD Biosciences) as Lin−/c-Kit+/Sca-1+/CD48−/CD150+/CD34− (lineage, Lin: CD3e/CD11b/CD19/CD41/B220/Gr-1/Ter-119), which are approximately 50% pure HSCs. Macrophage colony-stimulating factor (M-CSF), a myeloid cytokine released during infection and inflammation, is employed to induce HSCs differentiation. Human CD34+ cells were isolated from mononuclear cells using EasySepTM human CD34 positive selection kit (Stemcell Technologies, Vancouver, BC, Canada). CD34+CD38−CD45RA−CD90+CD49f+ HSCs were sorted using a FACSAria III flow cytometer (BD Biosciences). […]
(§2) For image acquisition, a Nikon Ti-ECLIPSE microscope with an automated translation stage and a digital CMOS camera (ORCA-Flash 4.0, Hamamatsu, Japan) was used. […] Bright field and fluorescence images were acquired and analyzed using a customized MATLAB program (Mathworks, […]). The algorithm extracts single cell traces including position, nuclear and cytoplasm fluorescence level. For example, the 3T3 cell nuclear area in each image is identified via the fluorescent nuclear marker GFP, and then the mean value of the nuclear intensity of the p65-DsRed marker is measured, and plotted as a function of time. […]

NSCs [2] = test: NSCs proliferation (cell number) under sequential ligand inputs (permutation test and decision tree analysis); settings: sequential input, ligand added at day 1
Text: as §1, §2

[3] = test system: Hes5-GFP expression in NSCs; test: NSCs Hes5-GFP expression under sequential ligand inputs (permutation test and decision tree analysis); settings: sequential input
Text: as §1, §2

mice HSCs = test: M-CSF induced differentiation of mice HSCs on chip; settings: media replacement through the buffering layer
Text: FIG. 11B(I) depicts the culture of mice HSCs cells in suspension mode, and (II) depicts the differentiation of mice HSCs cells by introducing M-CSF differentiation media.
Murine hematopoietic stem cells (HSC) are isolated by FACSAria III flow cytometer (BD Biosciences) as Lin−/c-Kit+/Sca-1+/CD48−/CD150+/CD34− (lineage, Lin: CD3e/CD11b/CD19/CD41/B220/Gr-1/Ter-119), which are approximately 50% pure HSCs. Macrophage colony-stimulating factor (M-CSF), a myeloid cytokine released during infection and inflammation, is employed to induce HSCs differentiation. Human CD34+ cells were isolated from mononuclear cells using EasySepTM human CD34 positive selection kit (Stemcell Technologies, Vancouver, BC, Canada). CD34+CD38−CD45RA−CD90+CD49f+ HSCs were sorted using a FACSAria III flow cytometer (BD Biosciences). Pro- and anti-inflammatory cytokines including TNF, IFN[…], IL-6, IP10 and MCP-1 are introduced into the cellular environment as single ligand and in combination. Embryonic NSCs with Hes-GFP and Dcx-RFP reporters were isolated at embryonic day 13.5 from a transgenic mice carrying Hes-GFP and Dcx-RFP using standard protocol (Woo, et al., 2009; Basak, et al., 2007). The resulting primary cells were verified to carry both Hes5-GFP and Dcx-RFP after isolation and allowed to grow for few passages before use in the experiments (Giachino, et al., 2009). […]

B1: Jagged: signaling ligand whose receptor is highly expressed during mouse forebrain development (protein, UniProt Q9QXX0 34-1218, looked up)
Protein jagged-1: QFELEILSMQNVNGELQNGNCCGGVRNPGDRKCTRDECDTYFKVCLKEYQSRVTAGGPCSFGSGSTPVIGGNTFNLKASRGNDRNRIVLPFSFAWPRSYTLLVEAWDSSNDTIQPDSIIEKASHSGMINPSRQWQTLKQNTGIAHFEYQIRVTCDDHYYGFGCNKFCRPRDDFFGHYACDQNGNKTCMEGWMGPDCNKAICRQGCSPKHGSCKLPGDCRCQYGWQGLYCDKCIPHPGCVHGTCNEPWQCLCETNWGGQLCDKDLNYCGTHQPCLNRGTCSNTGPDKYQCSCPEGYSGPNCEIAEHACLSDPCHNRGSCKETSSGFECECSPGWTGPTCSTNIDDCSPNNCSHGGTCQDLVNGFKCVCPPQWTGKTCQLDANECEAKPCVNARSCKNLIASYYCDCLPGWMGQNCDININDCLGQCQNDASCRDLVNGYRCICPPGYAGDHCERDIDECASNPCLNGGHCQNEINRFQCLCPTGFSGNLCQLDIDYCEPNPCQNGAQCYNRASDYFCKCPEDYEGKNCSHLKDHCRTTTCEVIDSCTVAMASNDTPEGVRYISSNVCGPHGKCKSQSGGKFTCDCNKGFTGTYCHENINDCESNPCKNGGTCIDGVNSYKCICSDGWEGAHCENNINDCSQNPCHYGGTCRDLVNDFYCDCKNGWKGKTCHSRDSQCDEATCNNGGTCYDEVDTFKCMCPGGWEGTTCNIARNSSCLPNPCHNGGTCVVNGDSFTCVCKEGWEGPICTQNTNDCSPHPCYNSGTCVDGDNWYRCECAPGFAGPDCRININECQSSPCAFGATCVDEINGYQCICPPGHSGAKCHEVSGRSCITMGRVILDGAKWDDDCNTCQCLNGRVACSKVWCGPRPCRLHKSHNECPSGQSCIPVLDDQCFVRPCTGVGECRSSSLQPVKTKCTSDSYYQDNCANITFTFNKEMMSPGLTTEHICSELRNLNILKNVSAEYSIYIACEPSLSANNEIHVAISAEDIRDDGNPVKEITDKIIDLVSKRDGNSSLIAAVAEVRVQRRPLKNRTDFLVPLLSSVLTVAWVCCLVTAFYWCVRKRRKPSSHTHSAPEDNTTNNVREQLNQIKNPIEKHGANTVPIKDYENKNSKMSKIRTHNSEVEEDDMDKHQQKVRFAKQPVYTLVDREEKAPSGTPTKHPNWTNKQDNRDLESAQSLNRMEYIV
- cell number, mean ratio relative to control (NSCs [1]; Jagged present): 1.14
- cell number, mean ratio relative to control (NSCs [1]; Jagged with DLL also added): 1.08
- cell number relative to control (NSCs [2]): 111.0 % of the control
- effect on Hes5 expression ([3]; DLL added before Jagged in the first 3 days): enhance Hes5 expression
- Hes5 expression relative to control ([3]; ligand added at day 1): 94.5 % of the control

B2: M-CSF: myeloid cytokine released during infection and inflammation, employed to induce HSCs differentiation (protein, UniProt P09603 33-554, looked up)
Macrophage colony-stimulating …: EEVSEYCSHMIGSGHLQSLQRLIDSQMETSCQITFEFVDQEQLKDPVCYLKKAFLLVQDIMEDTMRFRDNTPNAIAIVQLQELSLRLKSCFTKDYEEHDKACVRTFYETPLQLLEKVKNVFNETKNLLDKDWNIFSKNCNNSFAECSSQDVVTKPDCNCLYPKAIPSSDPASVSPHQPLAPSMAPVAGLTWEDSEGTEGSSLLPGEQPLHTVDPGSAKQRPPRSTCQSFEPPETPVVKDSTIGGSPQPRPSVGAFNPGMEDILDSAMGTNWVPEEASGEASEIPVPQGTELSPSRPGGGSMQTEPARPSNFLSASSPLPASAKGQQPADVTGTALPRVGPVRPTGQDWNHTPQKTDHPSALLRDPPEPGSPRISSLRPQGLSNPSTLSAQPQLSRSHSSGSVLPLGELEGRRSTRDRRSPAEPEGGPASEGAARPLPRFNSVPLTDTGHERQSEGSFSPQLQESVFHLLVPSVILVLLAVGGLLFYRWRRRSHQEPQRADSPLEQPEGSPLTQDDRQVELPV
- response of HSCs to ligand input (mice HSCs): instantaneous response
